From publication PMC12736101

Assay: SEC; Superdex 200 10/300 GL, phosphate-buffered saline, 0.5 mL/min, ambient temperature, UV 280 nm; the SEC 'monomer' peak is the native covalent dimer

Sequence of dulaglutide, original reference drug (Trulicity) (chain): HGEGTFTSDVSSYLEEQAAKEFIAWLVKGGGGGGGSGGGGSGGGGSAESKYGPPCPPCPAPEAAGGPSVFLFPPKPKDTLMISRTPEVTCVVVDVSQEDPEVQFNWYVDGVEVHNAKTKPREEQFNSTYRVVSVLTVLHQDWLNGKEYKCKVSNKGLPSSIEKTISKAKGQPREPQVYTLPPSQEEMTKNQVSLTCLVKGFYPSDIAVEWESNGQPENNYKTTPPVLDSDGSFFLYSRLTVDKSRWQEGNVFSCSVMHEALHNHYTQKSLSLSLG

dulaglutide, original reference drug (Trulicity)
percent in the SEC 'monomer' peak (the native covalent dimer): 97.5% monomeric form in the Trulicity sample
